Our source for the EC50, Kd and koff values is patent publication US20200291135A1 (INSPIRNA, published 2020).

In general, EC50 refers to the concentration that produces a half-maximal response. A higher EC50 goes with lower potency in that assay. For orientation: koff means the first-order rate constant of dissociation.

The target in assay [1] is T1, human MERTK expressed on cells (SKMEL5 melanoma cells; in vitro differentiated M2 macrophages) (human, UniProt Q12866 21-999).
T1 construct: Endogenous MERTK of human cells; also called surface MERTK
T1 sequence: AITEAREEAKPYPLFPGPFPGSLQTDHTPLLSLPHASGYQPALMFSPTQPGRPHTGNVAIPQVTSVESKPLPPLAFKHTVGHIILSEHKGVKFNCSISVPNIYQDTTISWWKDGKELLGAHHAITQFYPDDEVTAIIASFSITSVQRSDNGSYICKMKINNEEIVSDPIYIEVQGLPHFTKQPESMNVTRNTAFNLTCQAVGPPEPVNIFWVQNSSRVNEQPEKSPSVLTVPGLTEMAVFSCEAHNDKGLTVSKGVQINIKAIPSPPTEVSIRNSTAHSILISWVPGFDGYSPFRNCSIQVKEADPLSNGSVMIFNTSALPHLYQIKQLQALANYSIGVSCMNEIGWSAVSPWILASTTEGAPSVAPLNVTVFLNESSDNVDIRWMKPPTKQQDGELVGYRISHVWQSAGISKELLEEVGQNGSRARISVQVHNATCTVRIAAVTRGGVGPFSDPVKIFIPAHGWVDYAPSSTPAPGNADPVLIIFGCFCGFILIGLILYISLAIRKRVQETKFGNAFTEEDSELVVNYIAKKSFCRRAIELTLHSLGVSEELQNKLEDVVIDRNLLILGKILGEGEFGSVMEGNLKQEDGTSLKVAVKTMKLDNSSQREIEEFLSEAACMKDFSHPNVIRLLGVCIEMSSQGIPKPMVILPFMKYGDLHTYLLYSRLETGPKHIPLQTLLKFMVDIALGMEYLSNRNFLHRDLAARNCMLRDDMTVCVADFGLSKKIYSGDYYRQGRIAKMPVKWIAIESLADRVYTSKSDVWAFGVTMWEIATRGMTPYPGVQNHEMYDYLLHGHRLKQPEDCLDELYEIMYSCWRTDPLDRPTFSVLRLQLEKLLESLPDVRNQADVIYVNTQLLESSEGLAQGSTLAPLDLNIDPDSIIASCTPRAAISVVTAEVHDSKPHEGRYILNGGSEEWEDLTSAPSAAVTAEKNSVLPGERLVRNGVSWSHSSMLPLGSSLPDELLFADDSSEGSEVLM
The assay is described as follows: cell-based assay similar to that for z10 (flow cytometry on cells).

Assay [2] deals with T2, rhMer/Fc Chimera (recombinant human MERTK extracellular domain conjugated to an IgG Fc domain) (human, UniProt Q12866 21-505).
T2 construct: extracellular domain; also called hMER recombinant protein; Mer-Fc conjugate; not shown: IgG Fc domain
T2 sequence (looked up): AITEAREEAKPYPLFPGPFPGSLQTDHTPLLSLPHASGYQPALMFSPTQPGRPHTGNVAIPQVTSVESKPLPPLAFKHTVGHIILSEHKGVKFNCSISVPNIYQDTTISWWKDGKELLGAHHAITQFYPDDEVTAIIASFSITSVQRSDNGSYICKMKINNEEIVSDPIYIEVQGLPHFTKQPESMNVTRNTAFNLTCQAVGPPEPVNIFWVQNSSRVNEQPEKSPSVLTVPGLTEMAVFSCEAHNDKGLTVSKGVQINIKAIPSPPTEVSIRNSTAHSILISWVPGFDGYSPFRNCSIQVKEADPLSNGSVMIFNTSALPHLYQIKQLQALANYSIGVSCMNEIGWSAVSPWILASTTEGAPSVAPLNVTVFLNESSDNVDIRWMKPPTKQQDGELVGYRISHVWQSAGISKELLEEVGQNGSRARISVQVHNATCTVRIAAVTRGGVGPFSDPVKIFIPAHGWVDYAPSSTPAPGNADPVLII
The assay is described as follows: SPR, avidity format: rhMer/Fc Chimera immobilised on CM5 chip, antibody as analyte, 1:1 fit. Here is the method: With respect to avidity and affinity measurements using SPR, the protocols below were used.
The activator was prepared with a mixture of 400 mM EDC and 100 mM NHS immediately prior to injection. The CM5 sensor chip was activated for 420 s with the mixture. […] The chip was deactivated by 1 M ethanolamine-HCl. […] 8 concentrations (0.3125, 0.625, 1.25, 2.5, 5, 10, 20 and 40 nM) of the antibodies and running buffer were injected at a flow rate of 30 μL/min for an association phase of 240 s, followed by 4800 s dissociation. 10 mM glycine pH 1.5 as regeneration buffer was injected following every dissociation phase. The chip was regenerated with 10 mM glycine pH 1.5. One surface channel without capturing ligand was used as control surface for reference subtraction. Final data of each interaction was deducted from reference channel and buffer channel data. […] A molecular weight of 150 kDa was used to calculate the molar concentration of the antibodies.

Assay [3] addresses T2, rhMer/Fc Chimera (recombinant human …). The assay is described as follows: SPR, off-rate; ligand rhMer/Fc Chimera, antibody as analyte; below the detection limit of the instrument. A general note: Surface plasmon resonance follows binding to a sensor surface in real time, without labels.
For assay [4] the target is unchanged. The assay can be described thus: SPR, off-rate; ligand rhMer/Fc Chimera, antibody as analyte.

Changes are numbered by the printed parent chain. Bounds are passed on as bounds.

B1: z11 antibody (antibody, human IgG1, kappa, V domains shown)
VH: QVQLVQSGAEVKKPGASVKVSCKASGYTFTNYGMNWVRQAPGQGLEWMGWINTYTGEPTYADDFKGRVTMTLDTSTSTAYMELRSLRSDDMAVYYCARKSTVVSRYFDVWGQGTTVTVSS
VL: DIQMTQSPSFLSASVGDRVTITCKASQDVGDAVTWYQQKPGKAPKLLIYWASTRHTGVPDRFSGSGSGTDFTLTISSLQPEDFATYYCQQYRSYPLTFGQGTKLEIKR
As to B1, the concentration giving a half-maximal response (EC50) in assay [1] turned out to be 7.9 nM. Further, in assay [2], the Kd was 0.00299 nM. For the same molecule, in assay [3], the dissociation rate constant (koff) is less than 1e-06 s⁻¹.

B2: z13 antibody (antibody, human IgG1, kappa, V domains shown)
VH: B1 VH with M70F
VL: B1 VL
B2 registered an EC50 in assay [1] of 7.6 nM. In addition, the Kd in assay [2] amounted to 0.00368 nM. Further, the koff in assay [3] was less than 1e-06 s⁻¹.

B3: W3725-xAb-IgG1K/(S34+S35) (antibody, V domains shown)
VH: QIQLVQSGPELKKPGETVKISCKASGYTFTNYGMNWVKQAPGKGLKWMGWINTYTGEPTYADDFKGRFVFSLETSASTAYLQINNLKNEDMATYFCARKSTVVSRYFDVWGAGTTVTVSS
VL: DIVLTQSHKFMSTSVGDRVSITCKASQDVGDAVTWCQQKPGQPPKLLIYWASTRHTGVPDRFTGSGSGTDFTLTINNVQSEDLADYFCQQYRSYPLTFGAGTKLELKR
notes: also called chimeric anti-MERTK antibody
In the case of B3, the off-rate constant (koff) in assay [4] came to 7e-06 s⁻¹.
